T1: human TROP-2 protein with His tag (TROP-2-His) (human, UniProt P09758 27-274)
T1 construct: Bought reagent (Sino Biological 10428-H08H); also called TROP-2His protein; human TROP-2 His antigen; not shown: His tag
T1 sequence (looked up): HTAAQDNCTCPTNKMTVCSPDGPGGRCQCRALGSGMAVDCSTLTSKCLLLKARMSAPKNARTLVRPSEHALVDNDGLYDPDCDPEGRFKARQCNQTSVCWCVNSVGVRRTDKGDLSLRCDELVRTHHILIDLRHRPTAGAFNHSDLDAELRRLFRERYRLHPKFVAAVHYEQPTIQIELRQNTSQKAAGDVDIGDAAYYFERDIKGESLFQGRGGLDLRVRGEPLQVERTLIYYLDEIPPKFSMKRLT

B1: humanized anti-TROP-2 antibody HU1 (antibody, V domains shown)
VH: QVQLVQSGAEVKKPGSSVKVSCKASGYTFTNYWMNWVRQAPGKGLEWVGRIDPNDSETHYNQKFKDRFTITRDNSKNTLYLQMNSLRAEDTAVYYCARSGFGSTYWFFDVWGQGTTVTVSS
VL: AIRMTQSPFSLSASVGDRVTITCKASQDVSTAVAWYLQKPGQSPQLLIYSASYRYTRIPPRFSGSGYGTDFTLTINNIESEDAAYYFCQQHYSTPLTFGQGTRLEIK
B2: humanized anti-TROP-2 antibody HU10 (antibody, V domains shown)
VH: B1 VH
VL: B1 VL
B3: humanized anti-TROP-2 antibody HU6 (antibody, V domains shown)
VH: EVQLLESGGGLVQPGGSLRLSCAASGFTVSNYWMNWVRQAPGKGLEWMGRIDPNDSETHYNQKFKDRVTISVDKSKNQFSLKLSSVTAADTAVYYCARSGFGSTYWFFDVWGQGTTVTVSS
VL: DVVMTQSPLSLPVTLGQPASISCKASQDVSTAVAWYQQKPGKAPKLFIYSASYRYTGVPSRFSGSGSGTDFTLTISSLQPEDFATYYCQQHYSTPLTFGQGTRLEIK
B4: humanized anti-TROP-2 antibody HU6DL (antibody, V domains shown)
VH: B3 VH
VL: B3 VL
B5: murine monoclonal antibody M1 (antibody, V domains shown)
VH: QVQLQQPGAELVRPGASVKLSCRASGYTFTNYWMNWVKQRPEQGLEWIGRIDPNDSETHYNQKFKDRAILTVDKASNTAYMQLSGLTSEDSAVHYCARSGFGSTYWFFDVWGAGTTVTVSS
VL: DIVMTQSHKFMSTSVGDRVSITCKASQDVSTAVAWYQQKPGQSPKLLIYSASYRYTGVPDRFAGSGYGTDFTFTISSVQTEDLTVYHCQQHYSTPLTFGPGTRLELK

Tests used:
[1] = target: T1, human TROP-2 protein with His tag …; experiment: competition ELISA; competitor: coated hRS7; test antibody diluted to 100 ug/ml and added with TROP-2-His
[2] = target: T1, human TROP-2 protein with His tag …; experiment: indirect ELISA, TROP-2-His coated at 1 ug/ml

Binder	inhibition rate [1]	EC50 [2]
B1	13.5%	–
B2	10.2%	–
B3	6.7%	–
B4	5.9%	–
B5	–	0.56 nM
